Results as given in paper PMC10548220, “Development and evaluation of nanobody tracers for noninvasive nuclear imaging of the immune-checkpoint TIGIT” (Frontiers in Immunology, 2023).
Substitutions are numbered along the chain they refer to. Numbers in names are those of the source.

B1: anti-mTIGIT Nb 16979 (VHH)
VHH: QVQLQESGGGLVQAGESLRLSCAASIIVSDNIMAWYRQSPGKQREIVALISSTGTINYVDSVKGRFTISRDNAKNTLNLQMTKLKPEDTAVYYCSGRTLRVYWGQGTQVTVSS
notes: nanobody from an immunized llama; Cloned in pHen6 after PCR with primers A6E and PMCF; source: E. coli WK6, periplasmic extract, purified (Ni-NTA, SEC); not shown: His6, C-terminal, kept
B2: anti-mTIGIT nanobody 16966 (VHH)
VHH: QVQLQESGGGSVRPGESLRLSCAASSDSSITGMDWYRQAPGKQREWVATITRNNITIYGASVKGRFTVSRDNVKNTWYLQMNSLKPEDTAVYYCTYRGNWGQGTQVTVSS
notes: Cloned into pHen6 after PCR with primers A6E and PMCF; labelled with 99mTc on the His6 tag for the in vivo work; also called Nb 16966; source: E. coli WK6, periplasmic extract, purified (Ni-NTA, SEC); not shown: His6, C-terminal, kept
B3: anti-mTIGIT nanobody 16988 (VHH)
VHH: B2 VHH with S11L, R13Q, P14A, E16G, D27V, T56A, I57M, N72D, V73A, R97H
notes: Cloned into pHen6 after PCR with primers A6E and PMCF; labelled with 99mTc on the His6 tag for the in vivo work; also called lead anti-mTIGIT Nb; source: E. coli WK6, periplasmic extract, purified (Ni-NTA, SEC); not shown: His6, C-terminal, kept
B4: anti-mTIGIT nanobody 16972 (VHH)
VHH: B2 VHH with S11L, R13Q, P14T, D27V, T56A, I57M, V73A
notes: Cloned into pHen6 after PCR with primers A6E and PMCF; also called Nb 16972; source: E. coli WK6, periplasmic extract, purified (Ni-NTA, SEC); not shown: His6, C-terminal, kept
B5: anti-hTIGIT nanobody 17018 (VHH)
VHH: QVQLQESGGGLVQAGGSLRLSCTASSIFSINAMGWYRQTPGKQRELVARITNGSSTNYADSVKGRFTISRDNAKNTVYLQMNSLKPEDTAVYYCHTDLLLEVGAMRYWGQGTQVTVSS
notes: Cloned into pHen6 after PCR with primers A6E and PMCF; also called Nb 17018; source: E. coli WK6, periplasmic extract, purified (Ni-NTA, SEC); not shown: His6, C-terminal, kept
B6: anti-hTIGIT nanobody 17010 (VHH)
VHH: QVQLQESGGGSVQTGGSLRLSCAASNGFSINAMGWYRQSPGKQRELVARITSGSSTNYTNYADSVKGRFTISRDNAKNTGYLEMNLLKPEDTAVYYCHADVLLGGLQGLIQRFWGQGTQVTVSS
notes: Cloned into pHen6 after PCR with primers A6E and PMCF; also called Nb 17010; source: E. coli WK6, periplasmic extract, purified (Ni-NTA, SEC); not shown: His6, C-terminal, kept
B7: anti-hTIGIT nanobody 17037 (VHH)
VHH: QVQLQESGGGLVQAGGSLRLSCAASSTLSIDDMGWYRQAPEKHREFVATISRGGSTNYAASVKGRFTISRDNAKNTVFLQMNNLKSEDTAVYYCRATSTWRYYWAQGTQVTVSS
notes: Cloned into pHen6 after PCR with primers A6E and PMCF; also called Nb 17037; source: E. coli WK6, periplasmic extract, purified (Ni-NTA, SEC); not shown: His6, C-terminal, kept
B8: single-chain variable fragment derived from the monoclonal antibody Vibostolimab (scFv, V domains shown)
VH: EVQLVQSGAEVKKPGSSVKVSCKASGYTFSSYVMHWVRQAPGQGLEWIGYIDPYNDGAKYAQKFQGRVTLTSDKSTSTAYMELSSLRSEDTAVYYCARGGPYGWYFDVWGQGTTVTVSS
VL: DIQMTQSPSSLSASVGDRVTITCRASEHIYSYLSWYQQKPGKVPKLLIYNAKTLAEGVPSRFSGSGSGTDFTLTISSLQPEDVATYYCQHHFGSPLTFGQGTRLEIK
notes: VH of the mAb Vibostolimab (Merck); (G4S)3 linker, written out from the printed formula; VL of the mAb Vibostolimab (Merck); Cloned into pHen6 by Gibson assembly; also called scFv Vibo; Vibo scFv; source: E. coli WK6, periplasmic extract, purified (Ni-NTA, SEC), produced in the same way as the Nbs; not shown: His6, C-terminal, kept
B9: anti-hTIGIT nanobody 16920 (VHH)
VHH: QVQLQESGGGFVQAGGSLRLSCAASSISSIYAMDWYRQAPGKQREFVAGITSGGTTNYGSTVKGRFTISRDESKNTVDLQMNSLKPEDSAVYVCRATISWKIYSGQGTQVTVSS
notes: Cloned into pHen6 after PCR with primers A6E and PMCF; source: E. coli WK6, periplasmic extract, purified (Ni-NTA, SEC); not shown: His6, C-terminal, kept
B10: anti-hTIGIT nanobody 16925 (VHH)
VHH: QVQLQESGGGLVQAGGSLRLSCAASSISSINAMGWYRQPPGKQRELVARITFGHSTNYADSVKGRFTISRDNAKSTVYLQMNSLKPEDTAVYYCNADLLLNTQAIRAWGQGTQVTVSS
notes: Cloned into pHen6 after PCR with primers A6E and PMCF; labelled with 99mTc on the His6 tag for the in vivo work; also called lead hTIGIT Nb; source: E. coli WK6, periplasmic extract, purified (Ni-NTA, SEC); not shown: His6, C-terminal, kept
B11: anti-mTIGIT Nb 16972 (VHH)
VHH: B2 VHH with S11L, R13Q, P14T, D27V, T56A, I57M, V73A
notes: as for B1
B12: anti-mTIGIT Nb 16966 (VHH)
VHH: B2 VHH
notes: as for B1
B13: anti-mTIGIT Nb 16988 (VHH)
VHH: B2 VHH with S11L, R13Q, P14A, E16G, D27V, T56A, I57M, N72D, V73A, R97H
notes: as for B1
B14: anti-hTIGIT Nb 17018 (VHH)
VHH: B5 VHH
notes: as for B1
B15: anti-hTIGIT Nb 17010 (VHH)
VHH: B6 VHH
notes: as for B1
B16: anti-hTIGIT Nb 17037 (VHH)
VHH: B7 VHH
notes: as for B1
B17: single-chain variable fragment derived from the monoclonal antibody Vibostolimab (scFv, V domains shown)
VH: B8 VH
VL: B8 VL
notes: variable domain of the heavy chain (VH) of Vibostolimab (Merck); (G4S)3 linker; variable domain of the light chain (VL) of Vibostolimab (Merck); Cloned in pHen6; also called ScFv Vibo; Vibo scFv; source: E. coli WK6, periplasmic extract, purified (Ni-NTA, SEC), produced in the same way as the Nbs; not shown: His6, C-terminal, kept
B18: anti-hTIGIT Nb 16920 (VHH)
VHH: B9 VHH
notes: as for B1
B19: anti-hTIGIT Nb 16925 (VHH)
VHH: B10 VHH
notes: as for B1

Biological target: CD155 (Homo sapiens) (UniProt P15151)
Sequence (P15151 21-343): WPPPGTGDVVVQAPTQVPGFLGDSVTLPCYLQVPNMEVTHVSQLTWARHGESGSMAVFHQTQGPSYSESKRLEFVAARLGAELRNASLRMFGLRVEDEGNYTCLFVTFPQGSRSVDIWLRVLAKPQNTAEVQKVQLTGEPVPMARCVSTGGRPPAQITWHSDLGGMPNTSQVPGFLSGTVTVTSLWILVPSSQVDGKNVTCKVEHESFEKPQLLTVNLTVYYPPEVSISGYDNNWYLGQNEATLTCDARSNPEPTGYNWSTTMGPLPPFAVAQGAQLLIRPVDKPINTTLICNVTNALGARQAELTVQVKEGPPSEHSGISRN
Test: not given
Details: cited from earlier work

For TIGIT (from UniProt Q495A1), the Kd is given as 2 nM.

Biological target: recombinant mouse TIGIT-Fc carrier-free protein (mouse) (UniProt P86176)
Sequence (P86176 29-148): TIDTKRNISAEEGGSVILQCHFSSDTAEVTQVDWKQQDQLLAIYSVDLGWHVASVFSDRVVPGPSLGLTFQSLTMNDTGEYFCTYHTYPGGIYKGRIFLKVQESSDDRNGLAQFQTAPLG
Test: SPR; Biacore T200; recombinant m/hTIGIT-Fc immobilised on a CM5 chip; Nbs injected, eight two-fold dilutions from 200 nM, 10 µl/min, 25°C; HBS pH 7.4 (0.01 M HEPES, 0.15 M NaCl, 3 mM EDTA, 0.005% Tween 20); fit 1:1 binding with drift and RI2
Details: not given

For B1, the Kd was 846 nM.

Biological target: T1, recombinant mouse TIGIT-Fc carrier-free protein (Mus musculus, UniProt A0A0B4J1G6)
T1 construct: T cell Ig and ITIM domain receptor (TIGIT), mouse; also called mTIGIT-Fc; recombinant mTIGIT; source: bought: Biolegend
Test: as above
Details: both partners purified
T1 sequence (P86176 29-148): as above

Compared with B2, B3 is 1.5-fold lower in Kd: 0.157 ± 0.001 nM for the first, 0.104 ± 0.001 nM for the second. The second binds more tightly here.

B4 showed a Kd of 0.152 ± 0.001 nM.

Biological target: T2, recombinant human TIGIT-Fc carrier-free protein (Homo sapiens (Human)., UniProt Q495A1)
T2 construct: T cell Ig and ITIM domain receptor (TIGIT), human; also called hTIGIT-Fc; recombinant hTIGIT; source: bought: Biolegend
T2 sequence (Q495A1 22-141): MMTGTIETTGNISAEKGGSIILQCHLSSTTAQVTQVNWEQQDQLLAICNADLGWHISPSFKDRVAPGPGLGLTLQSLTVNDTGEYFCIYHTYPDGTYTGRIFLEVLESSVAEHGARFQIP
Test: as above
Details: both partners purified

B5 and B6 are within 1.5-fold of each other in Kd: 0.47 ± 0.002 nM for the first, 0.345 ± 0.001 nM for the second.

First: B7
Second: B8
The Kd of the first is 8.6-fold lower: 0.116 ± 0.001 nM for the first, 0.996 ± 0.004 nM for the second.

Compared with B9, B10 is 2.6-fold higher in Kd: 0.753 ± 0.002 nM for the first, 1.974 ± 0.004 nM for the second.

Biological target: T3, recombinant mouse TIGIT-Fc carrier-free protein (Mus musculus, UniProt A0A0B4J1G6)
T3 construct: T cell Ig and ITIM domain receptor (TIGIT), mouse; also called mTIGIT-Fc; mouse TIGIT recombinant protein; source: bought: Biolegend (Cat. No. 771808)
Test: SPR; Biacore T200; m/hTIGIT-Fc (10 µg/mL in 10 mM Na-acetate pH 4.0) immobilised on a CM5 chip; Nbs or scFv injected in two-fold dilutions from 200 nM, 10 µl/min, 25°C; HBS pH 7.4 (0.01 M HEPES, 0.15 M NaCl, 3 mM EDTA, 0.005% Tween 20); fit 1:1 binding with drift and RI2
Details: both partners purified
T3 sequence (P86176 29-148): as the sequence (P86176 29-148) above

Compared with B1, B11 is 100-fold lower in koff: 0.114 s⁻¹ for the first, 0.00113 s⁻¹ for the second.

Compared with B12, B13 is 3.5-fold lower in koff: 0.00257 s⁻¹ for the first, 0.000738 s⁻¹ for the second.

Going from B1 to B11, the kon rises from 134000 M⁻¹ s⁻¹ to 7.46e+06 M⁻¹ s⁻¹ (56-fold).

First: B12
Second: B13
The kon of the first is 2.3-fold higher: 1.64e+07 M⁻¹ s⁻¹ for the first, 7.06e+06 M⁻¹ s⁻¹ for the second.

Biological target: T4, recombinant human TIGIT-Fc carrier-free protein (Homo sapiens (Human)., UniProt Q495A1-1)
T4 construct: T cell Ig and ITIM domain receptor (TIGIT), human; also called hTIGIT-Fc; human TIGIT recombinant protein; source: bought: Biolegend (Cat. No. 768608)
T4 sequence (Q495A1 22-141): as the sequence (Q495A1 22-141) above
Test: as above
Details: both partners purified

Compared with B14, B15 is 1.6-fold higher in koff: 0.000496 s⁻¹ for the first, 0.000803 s⁻¹ for the second.

Compared with B16, B17 is 1.9-fold lower in koff: 0.00157 s⁻¹ for the first, 0.000827 s⁻¹ for the second.

Going from B18 to B19, the koff falls from 0.00426 s⁻¹ to 0.000911 s⁻¹ (4.7-fold).

First: B14
Second: B15
The kon of the first is 2.2-fold lower: 1.06e+06 M⁻¹ s⁻¹ for the first, 2.33e+06 M⁻¹ s⁻¹ for the second.

Compared with B16, B17 is 16-fold lower in kon: 1.36e+07 M⁻¹ s⁻¹ for the first, 830000 M⁻¹ s⁻¹ for the second.

Compared with B18, B19 is 12-fold lower in kon: 5.66e+06 M⁻¹ s⁻¹ for the first, 462000 M⁻¹ s⁻¹ for the second.
